Measured values published in the supplement of paper PMC5998384.

How the values were obtained:
HeLa Kyoto [1] = experiment: thermal stability score vs G1/S (z-score of summed log2 fold changes over temperatures); higher = more thermally stable than in G1/S
HeLa Kyoto [2] = experiment: solubility in G1/S (NP-40 vs SDS abundance) (log2 ratio); higher = more soluble; settings: cell cycle stage: G1/S
HeLa Kyoto [3] = experiment: solubility change mitosis vs G1/S (difference of NP-40 vs SDS log2 ratios) (log2 ratio difference); higher = more soluble in mitosis
[4] = cell cycle stage: early G1 (4.5 h after nocodazole release)
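Wherever solubility change mitosis vs G1/S (difference of NP-40 vs SDS log2 ratios) is given: synchronized HeLa Kyoto cells (double thymidine block for G1/S, nocodazole release for mitosis), protein amounts in NP-40 versus SDS lysates quantified by mass spectrometry, three biological replicates.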
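Wherever solubility in G1/S (NP-40 vs SDS abundance) is given: HeLa Kyoto cells arrested at G1/S by double thymidine block, proteins quantified by TMT10plex mass spectrometry in mild NP-40 versus SDS extracts, three biological replicates.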
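Wherever thermal stability score vs G1/S (z-score of summed log2 fold changes over temperatures) is given: synchronized HeLa Kyoto cells, proteins quantified by TMT10plex mass spectrometry, three biological replicates, mitosis taken 0.5 h after nocodazole release, G1/S directly after double thymidine block.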

Sequence	thermal stability score (HeLa Kyoto [1]; [4])	thermal stability score (HeLa Kyoto [1]; cell cycle stage: mitosis)	solubility in G1/S (log2) (HeLa Kyoto [2])	solubility change mitosis (log2) (HeLa Kyoto [3])
MAAAAVDSAMEVVPALAEEAAPEVAGLSCLVNLPGEVLEYILCCGSLTAADIGRVSSTCRRLRELCQSSGKVWKEQFRVRWPSLMKHYSPTDYVNWLEEYKVRQKAGLEARKIVASFSKRFFSEHVPCNGFSDIENLEGPEIFFEDELVCILNMEGRKALTWKYYAKKILYYLRQQKILNNLKAFLQQPDDYESYLEGAVYIDQYCNPLSDISLKDIQAQIDSIVELVCKTLRGINSRHPSLAFKAGESSMIMEIELQSQVLDAMNYVLYDQLKFKGNRMDYYNALNLYMHQVLIRRTGIPISMSLLYLTIARQLGVPLEPVNFPSHFLLRWCQGAEGATLDIFDYIYIDAFGKGKQLTVKECEYLIGQHVTAALYGVVNVKKVLQRMVGNLLSLGKREGIDQSYQLLRDSLDLYLAMYPDQVQLLLLQARLYFHLGIWPEKSFCLVLKVLDILQHIQTLDPGQHGAVGYLVQHTLEHIERKKEEVGVEVKLRSDEKHRDVCYSIGLIMKHKRYGYNCVIYGWDPTCMMGHEWIRNMNVHSLPHGHHQPFYNVLVEDGSCRYAAQENLEYNVEPQEISHPDVGRYFSEFTGTHYIPNAELEIRYPEDLEFVYETVQNIYSAKKENIDE [FBXO21]	0.858	1.12	-0.126	-0.0785
MAALTIATGTGNWFSALALGVTLLKCLLIPTYHSTDFEVHRNWLAITHSLPISQWYYEATSEWTLDYPPFFAWFEYILSHVAKYFDQEMLNVHNLNYSSSRTLLFQRFSVIFMDVLFVYAVRECCKCIDGKKVGKELTEKPKFILSVLLLWNFGLLIVDHIHFQYNGFLFGLMLLSIARLFQKRHMEGAFLFAVLLHFKHIYLYVAPAYGVYLLRSYCFTANKPDGSIRWKSFSFVRVISLGLVVFLVSALSLGPFLALNQLPQVFSRLFPFKRGLCHAYWAPNFWALYNALDKVLSVIGLKLKFLDPNNIPKASMTSGLVQQFQHTVLPSVTPLATLICTLIAILPSIFCLWFKPQGPRGFLRCLTLCALSSFMFGWHVHEKAILLAILPMSLLSVGKAGDASIFLILTTTGHYSLFPLLFTAPELPIKILLMLLFTIYSISSLKTLFRKEKPLFNWMETFYLLGLGPLEVCCEFVFPFTSWKVKYPFIPLLLTSVYCAVGITYAWFKLYVSVLIDSAIGKTKKQ [ALG8]	-0.785	-1.28	-0.668	-0.131
MAASGVEKSSKKKTEKKLAAREEAKLLAGFMGVMNNMRKQKTLCDVILMVQERKIPAHRVVLAAASHFFNLMFTTNMLESKSFEVELKDAEPDIIEQLVEFAYTARISVNSNNVQSLLDAANQYQIEPVKKMCVDFLKEQVDASNCLGISVLAECLDCPELKATADDFIHQHFTEVYKTDEFLQLDVKRVTHLLNQDTLTVRAEDQVYDAAVRWLKYDEPNRQPFMVDILAKVRFPLISKNFLSKTVQAEPLIQDNPECLKMVISGMRYHLLSPEDREELVDGTRPRRKKHDYRIALFGGSQPQSCRYFNPKDYSWTDIRCPFEKRRDAACVFWDNVVYILGGSQLFPIKRMDCYNVVKDSWYSKLGPPTPRDSLAACAAEGKIYTSGGSEVGNSALYLFECYDTRTESWHTKPSMLTQRCSHGMVEANGLIYVCGGSLGNNVSGRVLNSCEVYDPATETWTELCPMIEARKNHGLVFVKDKIFAVGGQNGLGGLDNVEYYDIKLNEWKMVSPMPWKGVTVKCAAVGSIVYVLAGFQGVGRLGHILEYNTETDKWVANSKVRAFPVTSCLICVVDTCGANEETLET [KLHL7]	0.201	-0.116	-0.622	0.322
MAASKTQGAVARMQEDRDGSCSTVGGVGYGDSKDCILEPLSLPESPGGTTTLEGSPSVPCIFCEEHFPVAEQDKLLKHMIIEHKIVIADVKLVADFQRYILYWRKRFTEQPITDFCSVIRINSTAPFEEQENYFLLCDVLPEDRILREELQKQRLREILEQQQQERNDTNFHGVCMFCNEEFLGNRSVILNHMAREHAFNIGLPDNIVNCNEFLCTLQKKLDNLQCLYCEKTFRDKNTLKDHMRKKQHRKINPKNREYDRFYVINYLELGKSWEEVQLEDDRELLDHQEDDWSDWEEHPASAVCLFCEKQAETIEKLYVHMEDAHEFDLLKIKSELGLNFYQQVKLVNFIRRQVHQCRCYGCHVKFKSKADLRTHMEETKHTSLLPDRKTWDQLEYYFPTYENDTLLCTLSDSESDLTAQEQNENVPIISEDTSKLYALKQSSILNQLLL [ZNF277]	0.293	1.38	-0.685	0.173
MAATAVAAAVAGTESAQGPPGPAASLELWLNKATDPSMSEQDWSAIQNFCEQVNTDPNGPTHAPWLLAHKIQSPQEKEALYALTVLEMCMNHCGEKFHSEVAKFRFLNELIKVLSPKYLGSWATGKVKGRVIEILFSWTVWFPEDIKIRDAYQMLKKQGIIKQDPKLPVDKILPPPSPWPKSSIFDADEEKSKLLTRLLKSNHPEDLQAANRLIKNLVKEEQEKSEKVSKRVSAVEEVRSHVKVLQEMLSMYRRPGQAPPDQEALQVVYERCEKLRPTLFRLASDTTDDDDALAEILQANDLLTQGVLLYKQVMEGRVTFGNRVTSSLGDIPVSRVFQNPAGCMKTCPLIDLEVDNGPAQMGTVVPSLLHQDLAALGISDAPVTGMVSGQNCCEEKRNPSSSTLPGGGVQNPSADRNLLDLLSAQPAPCPLNYVSQKSVPKEVPPGTKSSPGWSWEAGPLAPSPSSQNTPLAQVFVPLESVKPSSLPPLIVYDRNGFRILLHFSQTGAPGHPEVQVLLLTMMSTAPQPVWDIMFQVAVPKSMRVKLQPASSSKLPAFSPLMPPAVISQMLLLDNPHKEPIRLRYKLTFNQGGQPFSEVGEVKDFPDLAVLGAA [GGA2]	0.693	1.05	0.448	-0.32
MAAVAAEAAATAASPGEGGAGEAEPEMEPIPGSEAGTDPLPVTATEASVPDGETDGQQSAPQADEPPLPPPPPPPGELARSPEAVGPELEAEEKLSVRVAESAAAAPQGGPELPPSPASPPEQPPAPEEREEPPLPQPVAPALVPPAGGDSTVSQLIPGSEVRVTLDHIIEDALVVSFRFGEKLFSGVLMDLSKRFGPHGIPVTVFPKREYKDKPEAMPLQSNTFQEGTEVKCEANGAVPDDPSPVPHPELSLAESLWTSKPPPLFHEGAPYPPPLFIRDTYNQSIPQPPPRKIKRPKRKMYREEPTSIMNAIKLRPRQVLCDKCKNSVVAEKKEIRKGSSATDSSKYEDKKRRNESVTTVNKKLKTDHKVDGKNQNESQKRNAVVKVSNIAHSRGRVVKVSAQANTSKAQLSTKKVLQSKNMDHAKAREVLKIAKEKAQKKQNETSTSKNAHSKVHFTRRYQNPSSGSLPPRVRLKPQRYRNEENDSSLKTGLEKMRSGKMAPKPQSRCTSTRSAGEAPSENQSPSKGPEEASSEVQDTNEVHVPGDQDEPQTLGKKGSKNNISVYMTLNQKKSDSSSASVCSIDSTDDLKSSNSECSSSESFDFPPGSMHAPSTSSTSSSSKEEKKLSNSLKMKVFSKNVSKCVTPDGRTICVGDIVWAKIYGFPWWPARILTITVSRKDNGLLVRQEARISWFGSPTTSFLALSQLSPFLENFQSRFNKKRKGLYRKAITEAAKAAKQLTPEVRALLTQFET [PWWP2A]	1.31	1.07	-0.7	0.43
MAAVDSDVESLPRGGFRCCLCHVTTANRPSLDAHLGGRKHRHLVELRAARKAQGLRSVFVSGFPRDVDSAQLSEYFLAFGPVASVVMDKDKGVFAIVEMGDVGAREAVLSQSQHSLGGHRLRVRPREQKEFQSPASKSPKGAAPDSHQLAKALAEAADVGAQMIKLVGLRELSEAERQLRSLVVALMQEVFTEFFPGCVVHPFGSSINSFDVHGCDLDLFLDLGDLEEPQPVPKAPESPSLDSALASPLDPQALACTPASPPDSQPPASPQDSEALDFETPSSSLAPQTPDSALASETLASPQSLPPASPLLEDREEGDLGKASELAETPKEEKAEGAAMLELVGSILRGCVPGVYRVQTVPSARRPVVKFCHRPSGLHGDVSLSNRLALHNSRFLSLCSELDGRVRPLVYTLRCWAQGRGLSGSGPLLSNYALTLLVIYFLQTRDPPVLPTVSQLTQKAGEGEQVEVDGWDCSFPRDASRLEPSINVEPLSSLLAQFFSCVSCWDLRGSLLSLREGQALPVAGGLPSNLWEGLRLGPLNLQDPFDLSHNVAANVTSRVAGRLQNCCRAAANYCRSLQYQRRSSRGRDWGLLPLLQPSSPSSLLSATPIPLPLAPFTQLTAALVQVFREALGCHIEQATKRTRSEGGGTGESSQGGTSKRLKVDGQKNCCEEGKEEQQGCAGDGGEDRVEEMVIEVGEMVQDWAMQSPGQPGDLPLTTGKHGAPGEEGQPSHAALAERGPKGHEAAQEWSQGEAGKGASLPSSASWRCALWHRVWQGRRRARRRLQQQTKEGAGGGAGTRAGWLATEAQVTQELKGLSGGEERPETEPLLSFVASVSPADRMLTVTPLQDPQGLFPDLHHFLQVFLPQAIRHLK [TUT1]	0.3	1.52	-0.00805	0.00387
MAAVELEWIPETLYNTAISAVVDNYIRSRRDIRSLPENIQFDVYYKLYQQGRLCQLGSEFCELEVFAKVLRALDKRHLLHHCFQALMDHGVKVASVLAYSFSRRCSYIAESDAAVKEKAIQVGFVLGGFLSDAGWYSDAEKVFLSCLQLCTLHDEMLHWFRAVECCVRLLHVRNGNCKYHLGEETFKLAQTYMDKLSKHGQQANKAALYGELCALLFAKSHYDEAYKWCIEAMKEITAGLPVKVVVDVLRQASKACVVKREFKKAEQLIKHAVYLARDHFGSKHPKYSDTLLDYGFYLLNVDNICQSVAIYQAALDIRQSVFGGKNIHVATAHEDLAYSSYVHQYSSGKFDNALFHAERAIGIITHILPEDHLLLASSKRVKALILEEIAIDCHNKETEQRLLQEAHDLHLSSLQLAKKAFGEFNVQTAKHYGNLGRLYQSMRKFKEAEEMHIKAIQIKEQLLGQEDYEVALSVGHLASLYNYDMNQYENAEKLYLRSIAIGKKLFGEGYSGLEYDYRGLIKLYNSIGNYEKVFEYHNVLSNWNRLRDRQYSVTDALEDVSTSPQSTEEVVQSFLISQNVEGPSC [APPBP2]	-0.105	-0.0209	-0.17	-0.168
MAGAAEDARALFRAGVCAALEAWPALQIAVENGFGGVHSQEKAKWLGGAVEDYFMRNADLELDEVEDFLGELLTNEFDTVVEDGSLPQVSQQLQTMFHHFQRGDGAALREMASCITQRKCKVTATALKTARETDEDEDDVDSVEEMEVTATNDGAATDGVCPQPEPSDPDAQTIKEEDIVEDGWTIVRRKK [TSR2]	-0.881	0.659	0.00907	0.0427
MAGAENWPGQQLELDEDEASCCRWGAQHAGARELAALYSPGKRLQEWCSVILCFSLIAHNLVHLLLLARWEDTPLVILGVVAGALIADFLSGLVHWGADTWGSVELPIVGKAFIRPFREHHIDPTAITRHDFIETNGDNCLVTLLPLLNMAYKFRTHSPEALEQLYPWECFVFCLIIFGTFTNQIHKWSHTYFGLPRWVTLLQDWHVILPRKHHRIHHVSPHETYFCITTGWLNYPLEKIGFWRRLEDLIQGLTGEKPRADDMKWAQKIK [TMEM189]	-3.23	-3.53	-0.215	0.0319
MAGSYPEGAPAVLADKRQQFGSRFLRDPARVFHHNAWDNVEWSEEQAAAAERKVQENSIQRVCQEKQVDYEINAHKYWNDFYKIHENGFFKDRHWLFTEFPELAPSQNQNHLKDWFLENKSEVPECRNNEDGPGLIMEEQHKCSSKSLEHKTQTLPVEENVTQKISDLEICADEFPGSSATYRILEVGCGVGNTVFPILQTNNDPGLFVYCCDFSSTAIELVQTNSEYDPSRCFAFVHDLCDEEKSYPVPKGSLDIIILIFVLSAIVPDKMQKAINRLSRLLKPGGMMLLRDYGRYDMAQLRFKKGQCLSGNFYVRGDGTRVYFFTQEELDTLFTTAGLEKVQNLVDRRLQVNRGKQLTMYRVWIQCKYCKPLLSSTS [METTL2A]	0.497	0.608	0.185	0.0978
